Assay results as given in publication PMC8240856 (The Journal of Cell Biology, 2021).

T1: His6-Vps4 (S. cerevisiae, UniProt P52917 1-437)
T1 sequence: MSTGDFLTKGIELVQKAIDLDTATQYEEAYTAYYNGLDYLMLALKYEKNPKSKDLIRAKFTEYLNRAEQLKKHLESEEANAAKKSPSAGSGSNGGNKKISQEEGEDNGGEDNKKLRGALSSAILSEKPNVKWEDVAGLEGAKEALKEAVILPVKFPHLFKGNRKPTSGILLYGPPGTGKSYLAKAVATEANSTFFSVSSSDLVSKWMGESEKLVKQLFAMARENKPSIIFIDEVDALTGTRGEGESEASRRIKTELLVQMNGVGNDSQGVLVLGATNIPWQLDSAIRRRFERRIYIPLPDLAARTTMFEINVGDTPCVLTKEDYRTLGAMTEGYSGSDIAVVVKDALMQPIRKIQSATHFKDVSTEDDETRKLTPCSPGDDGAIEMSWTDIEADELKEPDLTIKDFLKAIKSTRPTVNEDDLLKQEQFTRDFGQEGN


Target: T1, His6-Vps4
Assay: pull-down

| Binder | binding result |
| --- | --- |
| GST-Bro1V(370-709) (domain or fragment) DVYEKESIYSEEKATLLRKQVEETETANLEYSSFIEFTNLPRLLSDLEKQFSDGNIFSNTDTQGQLMRDQIQTWCKFIQTNEFRDIEEQMNKIVFKRKQILEILSALPNDQKENVTKLKSSLVAASNSDEKLFACVKPHIVEINLLNDNGKIWKKFDEFNRNTPPQPSLLDIDDTKNDKILELLKQVKGHAEDLRTLKEERSRNLSELRDEINNDDITKLLIINKGKSDVELKDLFEVELEKFEPLSTRIEATIYKQSSMIDDIKAKLDEIFHLSNFKDKSSGEEKFLEDRKNFFDKLQEAVKSFSIFASDLPKGIEFYDSLFNMSRDLAERVRVAKQTE | binds |
| Bro1 V domain (Bro1V; aa 370-709) (domain or fragment) DVYEKESIYSEEKATLLRKQVEETETANLEYSSFIEFTNLPRLLSDLEKQFSDGNIFSNTDTQGQLMRDQIQTWCKFIQTNEFRDIEEQMNKIVFKRKQILEILSALPNDQKENVTKLKSSLVAASNSDEKLFACVKPHIVEINLLNDNGKIWKKFDEFNRNTPPQPSLLDIDDTKNDKILELLKQVKGHAEDLRTLKEERSRNLSELRDEINNDDITKLLIINKGKSDVELKDLFEVELEKFEPLSTRIEATIYKQSSMIDDIKAKLDEIFHLSNFKDKSSGEEKFLEDRKNFFDKLQEAVKSFSIFASDLPKGIEFYDSLFNMSRDLAERVRVAKQTE | binds |
| Bro1V^M10 (K481D) (domain or fragment) DVYEKESIYSEEKATLLRKQVEETETANLEYSSFIEFTNLPRLLSDLEKQFSDGNIFSNTDTQGQLMRDQIQTWCKFIQTNEFRDIEEQMNKIVFKRKQILEILSALPNDQDENVTKLKSSLVAASNSDEKLFACVKPHIVEINLLNDNGKIWKKFDEFNRNTPPQPSLLDIDDTKNDKILELLKQVKGHAEDLRTLKEERSRNLSELRDEINNDDITKLLIINKGKSDVELKDLFEVELEKFEPLSTRIEATIYKQSSMIDDIKAKLDEIFHLSNFKDKSSGEEKFLEDRKNFFDKLQEAVKSFSIFASDLPKGIEFYDSLFNMSRDLAERVRVAKQTE | binds |

Other lines, results leading:

| binding result | Binder |
| --- | --- |
| binds | Bro1V^M4 (V505A, H508A, I512A) (domain or fragment) DVYEKESIYSEEKATLLRKQVEETETANLEYSSFIEFTNLPRLLSDLEKQFSDGNIFSNTDTQGQLMRDQIQTWCKFIQTNEFRDIEEQMNKIVFKRKQILEILSALPNDQKENVTKLKSSLVAASNSDEKLFACAKPAIVEANLLNDNGKIWKKFDEFNRNTPPQPSLLDIDDTKNDKILELLKQVKGHAEDLRTLKEERSRNLSELRDEINNDDITKLLIINKGKSDVELKDLFEVELEKFEPLSTRIEATIYKQSSMIDDIKAKLDEIFHLSNFKDKSSGEEKFLEDRKNFFDKLQEAVKSFSIFASDLPKGIEFYDSLFNMSRDLAERVRVAKQTE |
| binds | Bro1V^M9 (T587D) (domain or fragment) DVYEKESIYSEEKATLLRKQVEETETANLEYSSFIEFTNLPRLLSDLEKQFSDGNIFSNTDTQGQLMRDQIQTWCKFIQTNEFRDIEEQMNKIVFKRKQILEILSALPNDQKENVTKLKSSLVAASNSDEKLFACVKPHIVEINLLNDNGKIWKKFDEFNRNTPPQPSLLDIDDTKNDKILELLKQVKGHAEDLRTLKEERSRNLSELRDEINNDDIDKLLIINKGKSDVELKDLFEVELEKFEPLSTRIEATIYKQSSMIDDIKAKLDEIFHLSNFKDKSSGEEKFLEDRKNFFDKLQEAVKSFSIFASDLPKGIEFYDSLFNMSRDLAERVRVAKQTE |

Target: T1, His6-Vps4
Assay: pull-down
Remark: another data set of the same source

| binding result | Binder |
| --- | --- |
| binds | Bro1V^M8 (E686A, L691D) (domain or fragment, S. cerevisiae, UniProt P48582 370-709, looked up) DVYEKESIYSEEKATLLRKQVEETETANLEYSSFIEFTNLPRLLSDLEKQFSDGNIFSNTDTQGQLMRDQIQTWCKFIQTNEFRDIEEQMNKIVFKRKQILEILSALPNDQKENVTKLKSSLVAASNSDEKLFACVKPHIVEINLLNDNGKIWKKFDEFNRNTPPQPSLLDIDDTKNDKILELLKQVKGHAEDLRTLKEERSRNLSELRDEINNDDITKLLIINKGKSDVELKDLFEVELEKFEPLSTRIEATIYKQSSMIDDIKAKLDEIFHLSNFKDKSSGEEKFLEDRKNFFDKLQEAVKSFSIFASDLPKGIAFYDSDFNMSRDLAERVRVAKQTE |
